# T1: SEP3 full length wild type (A. thaliana), O22456
# T1 chain: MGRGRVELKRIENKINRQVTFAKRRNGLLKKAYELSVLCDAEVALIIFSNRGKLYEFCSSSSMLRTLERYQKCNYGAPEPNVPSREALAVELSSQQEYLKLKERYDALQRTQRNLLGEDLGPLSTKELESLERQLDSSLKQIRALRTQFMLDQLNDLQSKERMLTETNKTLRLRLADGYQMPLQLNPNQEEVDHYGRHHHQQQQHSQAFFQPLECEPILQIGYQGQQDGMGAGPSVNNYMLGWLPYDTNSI
# B1: SEP3 full length wild type, O22456 1-251 (natural protein)
# chain: T1 chain
# Molecular target: T1, SEP3 full length wild type (A. …)
# Experiment: native gel or EMSA; in vitro translated proteins (not purified) with Cy5 labelled SOC1 promoter DNA in which CArG box 1 or CArG box 2 is mutated (one site left)
# Details: remark: other sources report otherwise
binder,measurement,value
B1,stoichiometry N,4
